One experiment concerns the target T1, thrombin (Homo sapiens, UniProt P00734).
T1 construct: converts prothrombin into thrombin
The experiment in a line: Stability of HBGF-1β to thrombin in the presence of heparin (Western blot). The experiment is classed as biochemical. The following applies: heparin as low as 5U/ml; thrombin 250 U/ml; 37° C. As for the experimental part:
FIGS. 1A-1F show Western blots of gels on which samples containing HBGF-1β had been incubated with 250 U/ml thrombin in the presence of increasing concentrations of heparin. Solutions containing HBGF-1β (10 μg/ml), thrombin ([…]), and increasing concentrations of heparin (0, 0.5, 5, 10, 20, and 50 units/ml) were incubated at 37° C. for 72 hours. Aliquots were periodically removed from each of the incubating mixtures and were loaded onto 8% SDS polyacrylamide gels that were prepared and run as described by Laemmli (Nature 227:680 (1970)). The gel was then electroblotted onto nitrocellulose and the band corresponding to HBGF-1β was identified using an affinity-purified polyclonal rabbit antiserum to HBGF-1β.
The concentrations of heparin in the incubating mixtures were: panel A) 0 units/ml; panel B) 0.5 U/ml; Panel C) 5 U/ml; panel D) 10 U/ml; panel E) 20 U/ml; and panel F) 50 U/ml. […]
Similarly, the ability of a selected inhibitor to protect a growth factor from degradation by TS components may be assessed by any method known to those of skill in the art. […]
It was necessary to add an ingredient to the FG that would inhibit or prevent the digestion of HBGF-1β by thrombin (Lobb, Biochem. 27:2572-2578 (1988)), which is a component of FG. […] The stability of HBGF-1 in the presence of increasing concentrations of heparin was assessed. […]
On the technique in general: In western blotting, separated proteins are transferred to a membrane and probed.

In another experiment the test system is NIH 3T3 cells. The experiment in a line: 3H-thymidine incorporation assay with NIH 3T3 cells. Type of experiment: cell-based. The note with it: after incubation with 250 U/ml thrombin and 5 U/ml heparin for 0, 24 or 72 hours. On the procedure:
FIG. 2. Graph ShowingReissue the incorporation of ^3H-thymidine as a function of relative HBGF-1β concentration. Samples of the HBGF-1β were incubated, as described in FIG. 1 and Example 2, in the presence of 250 U/ml thrombin and 5 U/ml heparin for 0, 24 or 72 hours. Dilutions of these samples were then added to NHI 3T3 cells, which were plated as described in Example 3. CPM is plotted v. HBGF-1 concentration.
The biological activity of HBGF-1 in the incubation mixture that contained 5 U/ml of heparin, and was described in Example 2, was measuring using an ^3H-thymidine incorporation assay with NIH 3T3 cells.
NIH 3T3 cells were introduced into 96 well plates and were incubated at 37° C. under starvation conditions in Dulbecco's Modified Medium (DMEM; GIBCO, Grand Island, N.Y.) with 0.5% […] bovine serum (BCS; GIBCO, Grand Island, N.Y.) until the cells reached 30 to 50% confluence. Two days later, varying dilutions of HBGF-1 from the samples prepared in Example 2 were added to each well without changing the medium. Diluent (incubation buffer) was added in place of growth factor for the negative controls and DMEM with 10% BCS, which contains growth factors needed for growth, was added in place of the HBGF-1 sample for the positive controls. […]

In the case of “HBGF-1: heparin binding growth factor-1, also known as ECGF and FGF-1; recombinant HBGF-1β expressed in E. coli”, in the experiment with thrombin, the “protection of HBGF-1β from digestion by thrombin” value is given as “protected from digestion by thrombin”. Also, the “biological activity (3H-thymidine incorporation)” value with NIH 3T3 cells was “retained its biological activity”.

Values taken from USRE39192E1, “Supplemented and unsupplemented tissue sealants, methods of their production and use” (American National Red Cross, priority 1990, dated 2006).
